The values that follow come from PMC6182155 (Nucleic Acids Research, 2018).

The term stoichiometry N denotes the number of molecules, sites or subunits per partner or assembly.

The series “SEC” deals with the molecule itself. The series is described as follows: SEC. In general terms: SEC sorts molecules by how far they enter the pores of the column.
The series “crystal structure” concerns the molecule itself. The series is described as follows: crystal structure.

B1: EcoKMcrA with C-terminal His6-tag (EcoKMcrA_(1-277)-GHHHHHHG), wild type (enzyme, E. coli (K strains), UniProt P24200 1-277, looked up)
chain: MHVFDNNGIELKAECSIGEEDGVYGLILESWGPGDRNKDYNIALDYIIERLVDSGVSQVVVYLASSSVRKHMHSLDERKIHPGEYFTLIGNSPRDIRLKMCGYQAYFSRTGRKEIPSGNRTKRILINVPGIYSDSFWASIIRGELSELSQPTDDESLLNMRVSKLIKKTLSQPEGSRKPVEVERLQKVYVRDPMVKAWILQQSKGICENCGKNAPFYLNDGNPYLEVHHVIPLSSGGADTTDNCVALCPNCHRELHYSKNAKELIEMLYVNINRLQK
As for B1, in the series “SEC”, the “stoichiometry N” value came to 2.

B2: EcoKMcrA K196E variant with N-terminal His6-tag (…-EcoKMcrA_(1-277)) (enzyme, E. coli (K strains), UniProt P24200 1-277, looked up)
chain: MHVFDNNGIELKAECSIGEEDGVYGLILESWGPGDRNKDYNIALDYIIERLVDSGVSQVVVYLASSSVRKHMHSLDERKIHPGEYFTLIGNSPRDIRLKMCGYQAYFSRTGRKEIPSGNRTKRILINVPGIYSDSFWASIIRGELSELSQPTDDESLLNMRVSKLIKKTLSQPEGSRKPVEVERLQKVYVRDPMVEAWILQQSKGICENCGKNAPFYLNDGNPYLEVHHVIPLSSGGADTTDNCVALCPNCHRELHYSKNAKELIEMLYVNINRLQK
On to B2, for which the binding result in the series “crystal structure” is “binds”.
